Numbering of substitutions follows the chain as printed. Numbered stars: 1 amine (or outer) side, 2 acyl side, 3 side chain; on linkers, the order of the positions; unused ones are H or OH. Bridge positions count the residues as written; N and C are the ends. Side chains are listed from the residue outwards. Ends that are not written are not given here. * marks the point of attachment. C20 diacid = O=C(O)CCCCCCCCCCCCCCCCCCC(=O)*; γGlu = O=C(O)[C@H](CCC(=O)[*:2])N[*:1]
T1: human amylin receptor (amylin 3(a) receptor: human calcitonin receptor plus RAMP-3) (human, UniProt P30988 25-474; O60896 24-148, limits assumed)
T1 sequence (looked up) 1: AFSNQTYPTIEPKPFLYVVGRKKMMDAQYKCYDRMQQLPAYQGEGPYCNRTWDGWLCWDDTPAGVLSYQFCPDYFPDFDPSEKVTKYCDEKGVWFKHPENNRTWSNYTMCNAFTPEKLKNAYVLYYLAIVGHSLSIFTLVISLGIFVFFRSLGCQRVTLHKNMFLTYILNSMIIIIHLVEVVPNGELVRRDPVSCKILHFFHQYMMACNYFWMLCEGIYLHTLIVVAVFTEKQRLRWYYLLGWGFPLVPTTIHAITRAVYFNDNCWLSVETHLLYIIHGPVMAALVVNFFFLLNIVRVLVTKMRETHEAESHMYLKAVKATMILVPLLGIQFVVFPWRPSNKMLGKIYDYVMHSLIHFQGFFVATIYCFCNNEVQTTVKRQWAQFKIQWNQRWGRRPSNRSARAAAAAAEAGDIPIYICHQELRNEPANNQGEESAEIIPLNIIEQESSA
T1 sequence (looked up) 2: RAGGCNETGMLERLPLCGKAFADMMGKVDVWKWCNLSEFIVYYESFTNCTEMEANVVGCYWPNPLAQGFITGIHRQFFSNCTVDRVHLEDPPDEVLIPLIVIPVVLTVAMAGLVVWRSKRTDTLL

T2: human calcitonin receptor (human, UniProt P30988 25-474)
T2 sequence (looked up): T1 sequence (looked up) 1

T3: human amylin receptor (amylin 3(a) receptor: human calcitonin receptor with RAMP-3) (human, UniProt P30988 25-474; O60896 24-148)
T3 sequence (looked up) 1: T1 sequence (looked up) 1
T3 sequence (looked up) 2: T1 sequence (looked up) 2

T4: human calcitonin receptor (human, UniProt P30988 25-474)
T4 sequence (looked up): T1 sequence (looked up) 1

B1: N^α1-[(4S)-4-carboxy-4-(19-carboxynonadecanoylamino)butanoyl]-[Arg17,Pro21,Pro27,Arg34]-h-amylin (peptide)
peptide: KCNTATCATQRLANFLRHSSPNFGAIPSSTNVGRNTY
modifications: C20 diacid-gGlu on the alpha amino group of the N-terminal residue; Cys2-Cys7 disulfide and C-terminal amide as in human amylin
notes: also called compound 39
B2: N^α1-[(4S)-4-carboxy-4-(19-carboxynonadecanoylamino)butanoyl]-[Arg17,Pro21,Pro27,His34]-h-amylin (peptide)
peptide: B1 peptide with R34H
modifications: C20 diacid-gGlu on the alpha amino group of the N-terminal residue; Cys2-Cys7 disulfide and C-terminal amide as in human amylin
notes: also called compound 40
B3: N^α1-[(4S)-4-carboxy-4-(19-carboxynonadecanoylamino)butanoyl]-[Arg17,Pro21,Pro27,Pro31,Glu35]-h-amylin (peptide)
peptide: {C20 diacid-γGlu}-KCNTATCATQRLANFLRHSSPNFGAIPSSTPVGSETY-NH2
modifications: disulfide 2-7
SMILES: CC[C@H](C)[C@H](NC(=O)[C@H](C)NC(=O)CNC(=O)[C@H](Cc1ccccc1)NC(=O)[C@H](CC(N)=O)NC(=O)[C@@H]1CCCN1C(=O)[C@H](CO)NC(=O)[C@H](CO)NC(=O)[C@H](Cc1c[nH]cn1)NC(=O)[C@H](CCCNC(=N)N)NC(=O)[C@H](CC(C)C)NC(=O)[C@H](Cc1ccccc1)NC(=O)[C@H](CC(N)=O)NC(=O)[C@H](C)NC(=O)[C@H](CC(C)C)NC(=O)[C@H](CCCNC(=N)N)NC(=O)[C@H](CCC(N)=O)NC(=O)[C@@H](NC(=O)[C@H](C)NC(=O)[C@@H]1CSSC[C@H](NC(=O)[C@H](CCCCN)NC(=O)CC[C@H](NC(=O)CCCCCCCCCCCCCCCCCCC(=O)O)C(=O)O)C(=O)N[C@@H](CC(N)=O)C(=O)N[C@@H]([C@@H](C)O)C(=O)N[C@@H](C)C(=O)N[C@@H]([C@@H](C)O)C(=O)N1)[C@@H](C)O)C(=O)N1CCC[C@H]1C(=O)N[C@@H](CO)C(=O)N[C@@H](CO)C(=O)N[C@H](C(=O)N1CCC[C@H]1C(=O)N[C@H](C(=O)NCC(=O)N[C@@H](CO)C(=O)N[C@@H](CCC(=O)O)C(=O)N[C@H](C(=O)N[C@@H](Cc1ccc(O)cc1)C(N)=O)[C@@H](C)O)C(C)C)[C@@H](C)O
notes: also called compound 28
B4: N^α1-[(4S)-4-carboxy-4-(19-carboxynonadecanoylamino)butanoyl]-[Glu14,Arg17,Pro21,Pro27,Arg35]-h-amylin (peptide)
peptide: {C20 diacid-γGlu}-KCNTATCATQRLAEFLRHSSPNFGAIPSSTNVGSRTY-NH2
modifications: disulfide 2-7
SMILES: CC[C@H](C)[C@H](NC(=O)[C@H](C)NC(=O)CNC(=O)[C@H](Cc1ccccc1)NC(=O)[C@H](CC(N)=O)NC(=O)[C@@H]1CCCN1C(=O)[C@H](CO)NC(=O)[C@H](CO)NC(=O)[C@H](Cc1c[nH]cn1)NC(=O)[C@H](CCCNC(=N)N)NC(=O)[C@H](CC(C)C)NC(=O)[C@H](Cc1ccccc1)NC(=O)[C@H](CCC(=O)O)NC(=O)[C@H](C)NC(=O)[C@H](CC(C)C)NC(=O)[C@H](CCCNC(=N)N)NC(=O)[C@H](CCC(N)=O)NC(=O)[C@@H](NC(=O)[C@H](C)NC(=O)[C@@H]1CSSC[C@H](NC(=O)[C@H](CCCCN)NC(=O)CC[C@H](NC(=O)CCCCCCCCCCCCCCCCCCC(=O)O)C(=O)O)C(=O)N[C@@H](CC(N)=O)C(=O)N[C@@H]([C@@H](C)O)C(=O)N[C@@H](C)C(=O)N[C@@H]([C@@H](C)O)C(=O)N1)[C@@H](C)O)C(=O)N1CCC[C@H]1C(=O)N[C@@H](CO)C(=O)N[C@@H](CO)C(=O)N[C@H](C(=O)N[C@@H](CC(N)=O)C(=O)N[C@H](C(=O)NCC(=O)N[C@@H](CO)C(=O)N[C@@H](CCCNC(=N)N)C(=O)N[C@H](C(=O)N[C@@H](Cc1ccc(O)cc1)C(N)=O)[C@@H](C)O)C(C)C)[C@@H](C)O
notes: also called compound 16
B5: N^α1-[(4S)-4-carboxy-4-(19-carboxynonadecanoylamino)butanoyl]-[Arg17,Pro21,Pro27,Glu35]-h-amylin (peptide)
peptide: B1 peptide with R34S, N35E
modifications: C20 diacid-gGlu on the alpha amino group of the N-terminal residue; Cys2-Cys7 disulfide and C-terminal amide as in human amylin
notes: also called compound 23
B6: N^α1-[2-[2-[2-[[2-[2-[2-[[(4S)-4-carboxy-4-(19-carboxynonadecanoylamino)butanoyl]amino]ethoxy]ethoxy]acetyl]amino]ethoxy]ethoxy]acetyl]-[Glu14,Arg17,Pro21,Pro27 … (peptide)
peptide: B1 peptide with N14E, R34S
modifications: C20 diacid-gGlu-2xOEG on the alpha amino group of the N-terminal residue; disulfide bridge Cys2-Cys7; C-terminal amide
notes: also called compound 19
B7: N^ε1-[(4S)--4-carboxy-4-(19-carboxynonadecanoylamino)butanoyl]-[Glu14,Arg17,Pro21,Pro27,Pro37]-h-amylin (peptide)
peptide: K([γGlu-C20 diacid])CNTATCATQRLAEFLRHSSPNFGAIPSSTNVGSNTP-NH2
modifications: disulfide 2-7; N-terminus assumed
SMILES: CC[C@H](C)[C@H](NC(=O)[C@H](C)NC(=O)CNC(=O)[C@H](Cc1ccccc1)NC(=O)[C@H](CC(N)=O)NC(=O)[C@@H]1CCCN1C(=O)[C@H](CO)NC(=O)[C@H](CO)NC(=O)[C@H](Cc1c[nH]cn1)NC(=O)[C@H](CCCNC(=N)N)NC(=O)[C@H](CC(C)C)NC(=O)[C@H](Cc1ccccc1)NC(=O)[C@H](CCC(=O)O)NC(=O)[C@H](C)NC(=O)[C@H](CC(C)C)NC(=O)[C@H](CCCNC(=N)N)NC(=O)[C@H](CCC(N)=O)NC(=O)[C@@H](NC(=O)[C@H](C)NC(=O)[C@@H]1CSSC[C@H](NC(=O)[C@@H](N)CCCCNC(=O)CC[C@H](NC(=O)CCCCCCCCCCCCCCCCCCC(=O)O)C(=O)O)C(=O)N[C@@H](CC(N)=O)C(=O)N[C@@H]([C@@H](C)O)C(=O)N[C@@H](C)C(=O)N[C@@H]([C@@H](C)O)C(=O)N1)[C@@H](C)O)C(=O)N1CCC[C@H]1C(=O)N[C@@H](CO)C(=O)N[C@@H](CO)C(=O)N[C@H](C(=O)N[C@@H](CC(N)=O)C(=O)N[C@H](C(=O)NCC(=O)N[C@@H](CO)C(=O)N[C@@H](CC(N)=O)C(=O)N[C@H](C(=O)N1CCC[C@H]1C(N)=O)[C@@H](C)O)C(C)C)[C@@H](C)O
notes: also called compound 12
B8: N{Alpha-1}-[(4S)-4-carboxy-4-(19-carboxynonadecanoylamino)butanoyl]-[Glu14,Arg17,Pro21,Pro27,Lys34]-h-amylin (peptide)
peptide: {C20 diacid-γGlu}-KCNTATCATQRLAEFLRHSSPNFGAIPSSTNVGKNTY-NH2
modifications: disulfide 2-7
SMILES: CC[C@H](C)[C@H](NC(=O)[C@H](C)NC(=O)CNC(=O)[C@H](Cc1ccccc1)NC(=O)[C@H](CC(N)=O)NC(=O)[C@@H]1CCCN1C(=O)[C@H](CO)NC(=O)[C@H](CO)NC(=O)[C@H](Cc1c[nH]cn1)NC(=O)[C@H](CCCNC(=N)N)NC(=O)[C@H](CC(C)C)NC(=O)[C@H](Cc1ccccc1)NC(=O)[C@H](CCC(=O)O)NC(=O)[C@H](C)NC(=O)[C@H](CC(C)C)NC(=O)[C@H](CCCNC(=N)N)NC(=O)[C@H](CCC(N)=O)NC(=O)[C@@H](NC(=O)[C@H](C)NC(=O)[C@@H]1CSSC[C@H](NC(=O)[C@H](CCCCN)NC(=O)CC[C@H](NC(=O)CCCCCCCCCCCCCCCCCCC(=O)O)C(=O)O)C(=O)N[C@@H](CC(N)=O)C(=O)N[C@@H]([C@@H](C)O)C(=O)N[C@@H](C)C(=O)N[C@@H]([C@@H](C)O)C(=O)N1)[C@@H](C)O)C(=O)N1CCC[C@H]1C(=O)N[C@@H](CO)C(=O)N[C@@H](CO)C(=O)N[C@H](C(=O)N[C@@H](CC(N)=O)C(=O)N[C@H](C(=O)NCC(=O)N[C@@H](CCCCN)C(=O)N[C@@H](CC(N)=O)C(=O)N[C@H](C(=O)N[C@@H](Cc1ccc(O)cc1)C(N)=O)[C@@H](C)O)C(C)C)[C@@H](C)O
notes: also called compound 36
B9: N^α1 N^α1-[(4S)-4-carboxy-4-[[(4S)-4-carboxy-4-(19-carboxynonadecanoylamino)butanoyl]amino]butanoyl]-[Glu14,Arg17,Pro21,Pro27]-h-amylin (peptide)
peptide: {C20 diacid-γGlu-γGlu}-KCNTATCATQRLAEFLRHSSPNFGAIPSSTNVGSNTY-NH2
modifications: disulfide 2-7
SMILES: CC[C@H](C)[C@H](NC(=O)[C@H](C)NC(=O)CNC(=O)[C@H](Cc1ccccc1)NC(=O)[C@H](CC(N)=O)NC(=O)[C@@H]1CCCN1C(=O)[C@H](CO)NC(=O)[C@H](CO)NC(=O)[C@H](Cc1c[nH]cn1)NC(=O)[C@H](CCCNC(=N)N)NC(=O)[C@H](CC(C)C)NC(=O)[C@H](Cc1ccccc1)NC(=O)[C@H](CCC(=O)O)NC(=O)[C@H](C)NC(=O)[C@H](CC(C)C)NC(=O)[C@H](CCCNC(=N)N)NC(=O)[C@H](CCC(N)=O)NC(=O)[C@@H](NC(=O)[C@H](C)NC(=O)[C@@H]1CSSC[C@H](NC(=O)[C@H](CCCCN)NC(=O)CC[C@H](NC(=O)CC[C@H](NC(=O)CCCCCCCCCCCCCCCCCCC(=O)O)C(=O)O)C(=O)O)C(=O)N[C@@H](CC(N)=O)C(=O)N[C@@H]([C@@H](C)O)C(=O)N[C@@H](C)C(=O)N[C@@H]([C@@H](C)O)C(=O)N1)[C@@H](C)O)C(=O)N1CCC[C@H]1C(=O)N[C@@H](CO)C(=O)N[C@@H](CO)C(=O)N[C@H](C(=O)N[C@@H](CC(N)=O)C(=O)N[C@H](C(=O)NCC(=O)N[C@@H](CO)C(=O)N[C@@H](CC(N)=O)C(=O)N[C@H](C(=O)N[C@@H](Cc1ccc(O)cc1)C(N)=O)[C@@H](C)O)C(C)C)[C@@H](C)O
notes: also called compound 15

These binders were tested against T1, human amylin receptor (amylin 3(a) …) (assay: cell-based or functional assay).

| Binder | hAmylin-R funct. EC50 [nM] |
| --- | --- |
| B1 | 0.217 |
| B2 | 0.164 |
| B3 | 0.22 |
| B4 | 0.363 |
| B5 | 0.34 |

What follows are binders tested against T2, human calcitonin receptor (assay: cell-based or functional assay).

| Binder | Ratio hCT/hAmylin funct. (hCTR EC50 against hAmylin-R EC50) | hCTR funct. EC50 [nM] |
| --- | --- | --- |
| B1 | 11.6 | 2.52 |
| B2 | 16.4 | 2.68 |
| B3 | 9.2 | 2.03 |
| B4 | 6.1 | 2.21 |
| B5 | 8.9 | 3.02 |

What follows are binders tested against T3, human amylin receptor (amylin 3(a) …) (assay: cell-based or functional assay).

| Binder | hAmylin-R funct. EC50 [nM] |
| --- | --- |
| B6 | 0.307 |
| B7 | 0.101 |
| B8 | 0.189 |
| B9 | 0.386 |

What follows are binders tested against T4, human calcitonin receptor (assay: cell-based or functional assay).

| Binder | Ratio hCT/hAmylin funct. | hCTR funct. EC50 [nM] |
| --- | --- | --- |
| B6 | 17.4 | 5.32 |
| B7 | 1.8 | 0.185 |
| B8 | 6.8 | 1.28 |
| B9 | 8.9 | 3.43 |

Source: patent US20140087995A1 (published 2014)
